Primed or numbered codes have the meaning given here. The star is where a group is joined. Biotin = O=C1N[C@H]2[C@H](CS[C@H]2CCCCC(=O)*)N1; FITC′ = not defined here

In one assay the target is T1, KLK4_(S207A) (human, UniProt Q9Y5K2 31-254, S207A).
T1 construct: Kallikrein-related peptidase 4 (KLK4), human, UniProtKB Q9Y5K2; peptidase domain left after thermolysin removed the pro-peptide S27CSQ30 (begins at residue 31); S207 is Ser195 in chymotrypsin numbering; also called KLK_(S207); not shown: FLAG, N-terminal, cleaved
The assay is described as follows: SPR; ProteOn XPR36; biotinylated PAR1 peptide immobilised on an NLC chip via NeutrAvidin-biotin (2600 RU); KLK4 variants flowed over in PBST at 30 µL/min for 818 s, dissociation 30 min (166 min for KLK4 S207A,L185D); 25 °C; empty channel subtracted; 1:1 Langmuir kinetic model. The settings on record: both partners purified. For orientation: Surface plasmon resonance follows binding to a sensor surface in real time, without labels.

The target of the next assay is T2, KLK4_(S207A,L185D) (human, UniProt Q9Y5K2 31-254, S207A | L185D).
T2 construct: Kallikrein-related peptidase 4 (KLK4), human, UniProtKB Q9Y5K2; peptidase domain left after thermolysin removed the pro-peptide S27CSQ30 (begins at residue 31); L185D chosen by in-silico saturation mutagenesis; also called KLK4_(L185D,S207A); KLK_(S207,L185D); not shown: FLAG, N-terminal, cleaved
Described as above. The settings on record: both partners purified.

T1 sequence (Q9Y5K2 31-254 S207A): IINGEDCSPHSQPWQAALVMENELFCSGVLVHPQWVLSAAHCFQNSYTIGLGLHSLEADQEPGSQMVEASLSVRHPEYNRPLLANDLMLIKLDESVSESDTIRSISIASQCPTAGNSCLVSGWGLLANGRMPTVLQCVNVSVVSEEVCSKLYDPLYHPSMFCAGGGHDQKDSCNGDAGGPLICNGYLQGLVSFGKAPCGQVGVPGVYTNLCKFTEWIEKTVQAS
T2 sequence (Q9Y5K2 31-254 L185D/S207A): as the sequence (Q9Y5K2 31-254 S207A) above, with L155D counted along it

B1: biotinylated PAR1 peptide (biotin-31SKATNATLDPRSFLLRNPNDKYEPFWED58-FITC) (peptide)
peptide: Biotin-SKATNATLDPRSFLLRNPNDKYEPFWED-{FITC′}
notes: also called PAR1 extracellular peptide; source: synthetic peptide, bought: Peptron, Daejeon, Korea (>95%)
As for B1, in the assay with KLK4_(S207A), the affinity, expressed as Kd, was 1120 nM; the off-rate (koff) (in general, the rate constant with which the complex falls apart) is 0.000391 s⁻¹; the on-rate (kon) (commonly a measure of how fast the partners come together) was determined as 349 M⁻¹ s⁻¹. Further, in the assay with KLK4_(S207A,L185D), the Kd (commonly the free concentration of one partner at which half of the binding sites on the other are occupied at equilibrium, for simple one-to-one binding) amounted to 55.5 nM; the koff came to 3.17e-06 s⁻¹; the kon worked out at 57 M⁻¹ s⁻¹.
